Results reported in patent publication US20230085439A1.

B1: MPV196 Fab (Fab, V domains shown)
VH: QVQLQQWGAGLLKPSETLSLTCAVYGGSFSGYSWTWIRQPPGKGLEWIGEINHSGSTNYNPSLKSRVTISIDTSRNQFSLKLISVTAADTAVYYCARGVRGGYNLWHFDVWGQGTLVTVSS
VL: SYELSQSPSVSVSPGQTARITCSGDKLGNKYASWYQQKPGQSPVLVIYQDDKRPSGIPERFSGSNSGNTATLTIGGTQAMDEADYSCQAWDGRTAVVFGGGTKLTVL
B2: MPV314 Fab (Fab, V domains shown)
VH: QVQLVQSGGGVVQPGRSLRLSCAASGFSFSDYGMDWVRQAPGKGLEWVAVISYDGSNQYYADSVKGRFTVSRDNSKNTVYLQMNSLRAEDTAVYFCAKDESRRYYYSSGIHSHWGQGTLVTVSS
VL: DIVMTQSPATLSVSPGERATLSCRASQSVSRNLAWYQQKPGQAPRLLIFGASTRATGIPARFSGSASGTEFTLTISSLQSEDFAVYYCHQYNYWPPGTFGQGTRLEIK
B3: MPV364 Fab (Fab, V domains shown)
VH: QVQLVQSGAEVKKPGASVKVSCKASGYTFTHDSIHWVRQAPGQRLEWMGWINVGNGDTKSSQKFQDRLTITRDTSANTAYMEVRSLKYEDTAMYFCARVDQYCIGGVCYGGKNWFDPWGQGTLVTVSS
VL: SYELNQPPSVSVAPGQTAMITCGGYYVGVKSLHWYQQKAGQAPVLVVHDDSDRPSGIPERFSGSKSGDTATLIISRVEAGDEADYYCQVWDRDSDHPYVFGTGTTVTVL
B4: MPV458 Fab (Fab, V domains shown)
VH: QGKLVESGGGVIQPGRSLRLSCAASGFDFSRYGLHWVRQAPGKGLEWVAVIVYAGSNKYYADSVKGRFTISKDNSKNTMHLQMSDLRTEDTAVYYCARDQAFDLWGQGTMVTVSS
VL: DIQMTQSPASLSASVGDRVTITCQASQGISRSVNWYQQKPGKAPKLLIFDASHLERGVPSRFSGSGYGTDFTFTISSLQPEDIATYYCQQYDNLRISFGQGTRLEIK

Key:
[1] = biological target: hMPV B2 F (human metapneumovirus)
[2] = biological target: hMPV B2 F (human metapneumovirus); assay: BLI, Fab in solution, His-tagged hMPV B2 F on anti-penta-HIS sensors
[3] = biological target: hMPV 130-BV (human metapneumovirus); assay: BLI, Fab in solution, hMPV 130-BV on anti-penta-HIS sensors
[4] = biological target: hMPV 130-BV (human metapneumovirus); assay: biolayer interferometry, hMPV 130-BV on anti-penta-HIS biosensors; unit inferred

| Binder | Kd [1] [nM] | koff [1] [s⁻¹] | kon [1] [M⁻¹ s⁻¹] | fold KD against MPV196 and MPV314 [2] [fold] | KD difference in logs against 101F Fab [3] [logs] | Kd [4] [nM] |
| --- | --- | --- | --- | --- | --- | --- |
| B1 | 7.3 | 0.003 | 410000 |  |  |  |
| B2 | 4.4 | 0.0027 | 630000 |  |  |  |
| B3 | 70 | 0.0038 | 61000 | 10 |  |  |
| B4 |  |  |  |  | 3 | 0.075 |
